According to PMC6133773:

Tests used:
purified protein [1] = substrate: C[C@](O)(CO)[C@H](O)C=CP(=O)(O)O; test: purified protein; conditions: Mg2+; CTP active site (alternative substrate)
purified protein [2] = substrate: C[C@](O)(CO)[C@H](O)C=C(F)P(=O)(O)O; test: purified protein; conditions: Mg2+; CTP active site (alternative substrate)
purified protein [3] = substrate: C[C@](O)(CO)[C@H](O)C[C@H](F)P(=O)(O)O; test: purified protein; conditions: Mg2+; CTP active site (alternative substrate)
purified protein [4] = substrate: C[C@](O)(CO)[C@H](O)CC(F)(F)P(=O)(O)O; test: purified protein; conditions: Mg2+; CTP active site (alternative substrate)
purified protein [5] = substrate: C[C@](O)(CO)[C@H](O)CCP(=O)(O)O; test: purified protein; conditions: Mg2+; CTP active site (alternative substrate)
[6] = substrate: C[C@](O)(CO)[C@H](O)COP(=O)(O)O; test: Michaelis-Menten kinetics; format: biochemical, Escherichia coli; conditions: Mg2+; CTP active site; natural substrate

B1: IspD (Escherichia coli K-12) (protein)
chain: ATTHLDVCAVVPAAGFGRRMQTECPKQYLSIGNQTILEHSVHALLAHPRVKRVVIAISPGDSRFAQLPLANHPQITVVDGGDERADSVLAGLKAAGDAQWVLVHDAARPCLHQDDLARLLALSETSRTGGILAAPVRDTMKRAEPGKNAIAHTVDRNGLWHALTPQFFPRELLHDCLTRALNEGATITDEASALEYCGFHPQLVEGRADNIKVTRPEDLALAEFYLTRTIHQENT
For B1, the Km (purified protein [1]) was 4000 ± 1000 µM, the kcat (purified protein [1]) was 0.09 ± 0.01 s⁻¹ and the kcat/Km (purified protein [1]) was 20 M⁻¹ s⁻¹. It also gave a Km (purified protein [2]) of 700 ± 500 µM, a Km (purified protein [3]) of 1000 ± 100 µM and a kcat (purified protein [3]) of 0.217 ± 0.01 s⁻¹. It also gave a kcat/Km (purified protein [3]) of 220 M⁻¹ s⁻¹, a Km (purified protein [4]) of 1900 ± 700 µM and a kcat (purified protein [4]) of 0.2 ± 0.0333 s⁻¹. It also gave a kcat/Km (purified protein [4]) of 110 M⁻¹ s⁻¹, a Km (purified protein [5]) of 1300 ± 200 µM and a Km [6] of 100 ± 20 µM. It also gave a kcat [6] of 18.2 ± 1 s⁻¹ and a kcat/Km [6] of 180000 M⁻¹ s⁻¹.
